Laboratory results as given in patent US20240209104A1 (SHANGHAI ACEMAB, published 2024).

Tests used:
hOX40-EC-His [1] = molecular target: T1, hOX40-EC-His (human, UniProt P43489 29-214); assay: ELISA, supernatant stoste, coated OX40 (CK60)
T1 construct: extracellular domain; bought protein; also called recombinant human OX40 antigen protein; human OX40 extracellular segment antigen; not shown: 6 His label
T1 sequence (looked up): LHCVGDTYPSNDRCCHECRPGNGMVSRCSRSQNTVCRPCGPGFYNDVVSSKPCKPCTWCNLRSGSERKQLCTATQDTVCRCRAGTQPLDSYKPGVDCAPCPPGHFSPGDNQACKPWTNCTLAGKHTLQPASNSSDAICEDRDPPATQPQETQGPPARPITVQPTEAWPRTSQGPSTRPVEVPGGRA

hOX40-EC-His [2] = molecular target: T1, hOX40-EC-His; assay: ELISA, supernatant 1:100, coated hOX40-EC-His
[3] = molecular target: T2, OX40 on OX40 over-expressed cells (UniProt P43489 29-277); assay: flow cytometry, supernatant on OX40 over-expressed cells
T2 construct: whole, on cells; human implied; also called OX40 expressed on the surface of OX40 expressing cell
T2 sequence (looked up): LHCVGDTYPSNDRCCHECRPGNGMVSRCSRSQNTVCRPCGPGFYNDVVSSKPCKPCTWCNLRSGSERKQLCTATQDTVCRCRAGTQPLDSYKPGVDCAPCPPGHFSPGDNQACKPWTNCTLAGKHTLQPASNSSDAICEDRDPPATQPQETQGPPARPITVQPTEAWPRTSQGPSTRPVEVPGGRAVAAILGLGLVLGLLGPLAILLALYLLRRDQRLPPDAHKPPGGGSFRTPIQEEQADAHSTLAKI
Procedure: After collecting OX40 over-expressed cells by 200G centrifugation, wash them with PBS containing 3% FCS, and then resuspend them in 2.5 ml of PBS containing 3% FCS. […] Finally, the cells were resuspended in […] of PBS containing 3% FCS for detection by flow cytometry.

hOX40-EC-His [4] = molecular target: T1, hOX40-EC-His; assay: ELISA, supernatant diluted 100 times, coated OX40 (CK60)

Binder	450 nm light absorption (hOX40-EC-His [1]) [OD450]	IgG ELISA (1:100) (hOX40-EC-His [2]) [OD650]	Y586 channel PE fluorescence value [3]	450 nm light absorption (hOX40-EC-His [4]) [OD450]
28E3-4 (antibody, V domains shown, hybridoma antibody, tested as culture supernatant) VH: QVQLQESGPGLVKPSGTLSLTCAVSGGSISRSNWWTWVRQSPGKGLEWIGEIYHSGNTNYNPSLKSRVTISLDKSKNQFSLKLSSVTAADTAVYYCASSGSLYMDVWGKGTTVTVSS VL: DIQMTQSPSSLSASVGDRVTISCRASQSTSSYLNWYQQKPGKAPRLLIYGASSLQSGVPSRFSGSGSGTDFILTISSLQPEDFATYYCQQSYSIPITFGQGTRLEIKR	2.27	2.1	195000	2.26
4D9-12 (antibody, V domains shown, hybridoma antibody, tested as culture supernatant) VH: QVQLQESGPGLVKPSGTLSLTCAVSGGSISSSNWWSWVRQPPGKGLEWIGEIYHSGNTIYNPSLKSRVTISLDKSKNQFSLKLSSVTAADTAVYYCASSGSLYMDVWGKGTTVTVSS VL: DIQMTQSPSSLLSSVGDRVTISCRASHGSSTYLNWYQQKPGKAPRLLIYGASSLQSGVPSRFSGSGFGTDFILTISSMQPEDFATYYCQQSYSIPITFGQGTRLEIKR	2.39	2.3	187000	1.26
21F3-11 (antibody, V domains shown, hybridoma antibody, tested as culture supernatant) VH: QVQLQESGPGLVKPSGTLSLTCAVSGGSISSSNWWSWVRQPPGKGLEWIGEIYHGGSTNYNPSLKSRITISVDKSKNQFSLKLSSVTAADTAMYYCATLPGYSSGWFDSWGQGTLVTVSS VL: EIVLMQSPGTLSLSPGERATLSCRASQSVSSSYLAWYQQKPGQAPSLLIYGASNRASGIPDRFSGSGSGTDFTLTITRLEPEDFAVYYCQQYGSSPLTFGGGTRVEIKR	2.58	1.9	171000	2.61
20D2-12 (antibody, V domains shown, hybridoma antibody, tested as culture supernatant) VH: QVQLVESGGGLVKPGGSLRLSCAASGFTFSDYYMSWIRQAPGRGLEWISYISGSDSTIYYEDSVMGRFTISRDNAKNSLYLQMNSLRAEDTAVYYCARDRDVYGYSGYGYFDYWGQGTLVTVSS VL: EIVLTQSPGTLSLSPGERATLSCRASQSVSSRYLAWYQQKPGQAPRLLIYGASNRATGMPDRFSGSGSGTDFTLTISRLEPEDFAVYYCQQYGSSPITFGQGTRLEIKR	3.81		540000	2.32
24F8-7 (antibody, V domains shown, hybridoma antibody, tested as culture supernatant) VH: QVQLQESGPGLVKPSGTLSLTCAVSGGSISSYNWWSWVRQPPGKGLEWIGEIYHSGSTNYNPSLKSRVTISVDKSKNQFSLKLSSVTAADTAVYYCARDEDYYGSGNYYHWGQGTLVTVSS VL: not shown	2.4		437000	2.14
21F9-12 (antibody, V domains shown, hybridoma antibody, tested as culture supernatant) VH: QVQLQESGPGLVKPSGTLSLTCAVSGGSISSYNWWSWVRQPPGKGLEWIGEIYHSGNTNYNPSLKSRVTISVDKSKNQFSLKLSSVTAADTAMYYCARDQDYYGSGNFYYWGQGTLVTVSS VL: not shown	2.37		424000	2
21D2-3 (antibody, V domains shown, hybridoma antibody, tested as culture supernatant) VH: QVQLVESGGGLVKPGGSLRLSCAASGFTFSDYYMSWIRQAPGKGLEWVSYISSSGTTIYCADSVKGRFTISRDNAKNSLYLQMNSLRAEDTAVYYCARDSSTWYEGNYFDYWGQGTLVTVSS VL: not shown	2.03	2.1	202000	1.38
24A12-12 (antibody, V domains shown, hybridoma antibody, tested as culture supernatant) VH: QVQLQESGPGLVKPAGTLSLTCAVSGGSISSSNWWNWVRQPPGKGLEWIGEIYHSGSTNYNPSLKSRVTISVDTSKNQFSLKLTSVTAADTAVYYCARTGPTVTTDYWGQGTLVTVSS VL: EIVLTQSPGTLSLSPGERATLSCRASQSVSSSYLAWYQQKPGQAPRLLIYGASYRATGMPERFSGSGSGTDFTLTISRLEPEDFAIYYCQQYGRSPLTFGGGTKVEIKR	2.81		343000	2.8
24F10-1 (antibody, V domains shown, hybridoma antibody, tested as culture supernatant) VH: QVQLQESGPGLVKPSGNLSLTCVVSGASIINNNWWTWVRQSPGKGLEWIGEIFHSGTTNYNPSLKNRVTISVDKAKNQFSLNLKSVTAADTAVYYCVAYVSGTYYNFDYWGQGTLVTVSS VL: not shown	2.41		274000	2.2
29A9-5 (antibody, V domains shown, hybridoma antibody, tested as culture supernatant) VH: QVQLQESGPGLVKPSGTLSLTCAVFGDSISSSYWWSWVRQPPGKGLEWIGEIYHSGSTHYNPSLKSRVTISVDKSKNHLSLKLISVTDADTAVYYCAGEDTGWPFDFWGQGTLVTVSS VL: not shown	1.93		221000	0.878
29B8-3 (antibody, V domains shown, hybridoma antibody, tested as culture supernatant) VH: QVQLQESGPGLVKPSGTLSLTCAVSGVSISSSNWWSWVRQPPGKGLEWIGEIYHSGNTNYNPSLKSRVTISVDKSKNQFSLKLSSVTAADTAVYYCAETSTITTNYWGQGTLVTVSS VL: DIQMTQSPSSLSASVGDRVTITCRASQTISSYLNWYQQKPGKAPKLLIYAASSLQSGVPSRFSGSESGTDFTLTISSLQPEDFATYYCQQTYSIPITFGQGTRLEIKR	2.46		388000	2.36
48D10-5 (antibody, V domains shown, hybridoma antibody, tested as culture supernatant) VH: QVQLVQSGAEVKKPGASMKVSCKASGYTFANFGINWVRQAPGQGLEWMGWISAYNGYTNYAQQFQGRITMTTDTSTSTAYMELRSLRSDDTAIYYCVIWFGELLSFDYWGQGTLVTVSS VL: DIQMTQFPSSLSASVGDRVTITCRASQDISNYLAWFQQKPGKAPKSLIYAASSLQSGVPSKFSGNGFGTDFTFPLSRMQPEDFASSYCQQYNNYTFTFGRGTKVEIKR	2.45		358000	2.35
15A7-6 (antibody, V domains shown, hybridoma antibody, tested as culture supernatant) VH: QVQLQESGPGLVKPSGTLSLTCAVSGGSINSSSWWSWVRQPPGKGLEWIGEIYHSGDTNYNPSLKSRVAISVDKSKNQFSLKLSSVTAADTAVYYCARDQADYFGSGNYVYWGQGTLVTVSS VL: EIVLMQYPGTLSLSSGERRVLSCRPSQSVSSSYLAWYQQKPGQAPRLLIYGASSRASGIPDRFSGSGSGTDFTLTISRLEPEDFAVYYCQQYGSLPITFGQGTRVEIKR	2.25		181000	1.4
24E10-4 (antibody, V domains shown, hybridoma antibody, tested as culture supernatant) VH: QVQMQESGPGLVKPSGTLSLTCAVSGGSISSSKWWSWVRQPPGKGLEWIGEIYHSGSTNYNPSLKSRVTISIDKSKNQFSLRLTSVTAADTAVYYCARGDVLLWFGGQGTLVTVSS VL: EIVLTQSPGTLSLSPGERATLSCWASQSVSSTYLAWYQQKPGQAPRLLIYGASIRATGIPDRFSGSGSGTDFTLTISSLEPEDFAVYYCQQYGSSPITFGQGTRLEIKR	2.51		344000	2.4
18F5-2 (antibody, V domains shown, hybridoma antibody, tested as culture supernatant) VH: QVQMQESGPGLVKPSGTLSLICAVSGGSISSSKWWSWVRQPPGKGLEWIGEIYHSGSTNYNPSLKSRVTISIDKSKNQFSLRLTSVTAADTAVYYCARGDVLLWFGGQGTLVTVSS VL: not shown	2.35		432000	2.2
26C3-4 (antibody, V domains shown, hybridoma antibody, tested as culture supernatant) VH: QVQLQESGPGLVKPSGTLSLTCDVSGGSISSSNWWSWVRQPPGKGLEWIGEIYHSGSTNYNPSLKSRVTISVDKSKNQVSLKLNSVTAADTAVYYCARGDILLWFGGQGTLVTVSS VL: not shown	2.32		416000	1.91
17D5-11 (antibody, V domains shown, hybridoma antibody, tested as culture supernatant) VH: QVQLQESGPGLVKPSETLSLTCAVSGGSINSTNWWSWVRQPPGKGLEWIGEIYHSGSTNYNPSLKSRVTISVDKSKNQFSLKLSSVTAADTAVYYCARGGAVALDYWGQGTLVTVSS VL: EIVLTQSPGPLSLSPGDRATLSCRASQTVSSSYLAWYLQKPGQAPRLLIYGASIRATGIPDRFSGSGSGTDFTLTISRLEPEDFAVYYCQQYGNSPITFGQGTRLEIKR	2.46		475000	2.32
18F11-4 (antibody, V domains shown, hybridoma antibody, tested as culture supernatant) VH: QVQLQESGPGLVKPSGTLSLTCAVSGGSISSYNWWSWVRQPPGKGLEWIGEIYHSGSTNYNPSLKSRVTISVDKSKNQFSLKLSSVTAADTAVYYCARDEDYYGSGNYYHWGQGTLVTVSS VL: not shown	1.87		402000	1.32
